Reference: PMC10716096, “A scalable overexpression of a thermostable recombinant poly-histidine tag carboxyl esterase under lambda promoter: purification, characterization, and protein modelling” (Journal of Genetic Engineering & Biotechnology, 2023)

Tested on: CCCCCCCCCCCC(=O)Oc1ccc([N+](=O)[O-])cc1
Assay: purified protein
Settings: pH 7.4, 60 °C, substrate 10-30 mM

Substance: EstB (6xHis carboxyl-esterase B) (Geobacillus thermoleovorans)
- Km: 22.756 mM
- kcat: 0.993 s⁻¹
